Results reported in patent US20200241008.

Experiments:
[1] = tested on: indicator molecule containing the cleavable sequence (GPQGIFGQ) with a terminal biotin group connected via a polyethylene glycol spacer/linker, intact
[2] = tested on: fluorescence resonance energy transfer (FRET) peptide of the commercial MMP-9 activity assay kit

active MMP-9 (Alere San Diego), sequence (chain, as listed by the source): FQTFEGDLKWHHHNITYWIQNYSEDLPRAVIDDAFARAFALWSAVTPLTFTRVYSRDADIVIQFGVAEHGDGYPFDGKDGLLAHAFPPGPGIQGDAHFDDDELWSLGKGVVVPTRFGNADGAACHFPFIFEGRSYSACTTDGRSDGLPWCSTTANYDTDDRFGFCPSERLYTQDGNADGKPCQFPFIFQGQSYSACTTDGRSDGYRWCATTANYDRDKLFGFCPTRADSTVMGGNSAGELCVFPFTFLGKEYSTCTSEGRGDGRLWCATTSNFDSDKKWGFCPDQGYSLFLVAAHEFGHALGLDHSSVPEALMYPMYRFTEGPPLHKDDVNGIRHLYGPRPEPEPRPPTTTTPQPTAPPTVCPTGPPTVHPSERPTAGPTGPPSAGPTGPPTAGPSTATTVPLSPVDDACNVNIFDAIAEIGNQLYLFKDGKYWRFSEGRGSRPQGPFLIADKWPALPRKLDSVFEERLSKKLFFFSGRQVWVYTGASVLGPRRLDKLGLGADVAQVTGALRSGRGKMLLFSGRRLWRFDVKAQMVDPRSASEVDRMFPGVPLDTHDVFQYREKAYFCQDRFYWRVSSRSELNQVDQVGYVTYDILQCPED
MMP2 (Enzo), sequence (chain, as listed by the source): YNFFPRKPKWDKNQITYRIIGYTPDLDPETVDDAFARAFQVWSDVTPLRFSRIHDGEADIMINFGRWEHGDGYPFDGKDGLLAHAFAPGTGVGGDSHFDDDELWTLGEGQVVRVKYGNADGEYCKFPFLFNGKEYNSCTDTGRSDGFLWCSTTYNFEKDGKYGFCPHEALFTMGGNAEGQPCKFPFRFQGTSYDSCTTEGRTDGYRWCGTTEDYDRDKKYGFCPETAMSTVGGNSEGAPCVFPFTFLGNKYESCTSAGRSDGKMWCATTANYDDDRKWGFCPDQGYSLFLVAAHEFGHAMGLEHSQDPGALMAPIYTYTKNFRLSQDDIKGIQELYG
MMP8 (Enzo), sequence (chain, as listed by the source): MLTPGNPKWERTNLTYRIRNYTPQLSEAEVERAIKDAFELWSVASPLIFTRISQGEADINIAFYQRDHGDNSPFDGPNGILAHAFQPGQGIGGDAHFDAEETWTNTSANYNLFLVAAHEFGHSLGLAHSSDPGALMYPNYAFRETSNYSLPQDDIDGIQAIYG
MMP9 (Enzo), sequence (chain, as listed by the source): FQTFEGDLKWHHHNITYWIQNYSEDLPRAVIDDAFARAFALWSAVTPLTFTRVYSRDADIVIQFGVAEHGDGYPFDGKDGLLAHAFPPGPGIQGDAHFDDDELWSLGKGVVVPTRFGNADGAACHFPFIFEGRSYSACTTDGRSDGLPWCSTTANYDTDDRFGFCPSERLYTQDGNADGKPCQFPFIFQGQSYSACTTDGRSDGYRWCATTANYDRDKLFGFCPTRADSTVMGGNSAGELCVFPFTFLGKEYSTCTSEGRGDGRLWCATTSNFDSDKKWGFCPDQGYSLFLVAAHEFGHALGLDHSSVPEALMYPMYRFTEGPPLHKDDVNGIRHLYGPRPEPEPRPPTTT
MMP10 (Enzo), sequence (chain, as listed by the source): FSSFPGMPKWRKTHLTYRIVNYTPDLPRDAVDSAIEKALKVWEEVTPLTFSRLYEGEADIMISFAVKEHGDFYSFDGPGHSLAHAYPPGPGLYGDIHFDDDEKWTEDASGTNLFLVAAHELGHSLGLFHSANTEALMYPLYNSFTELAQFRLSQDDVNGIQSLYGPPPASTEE
MMP3 (Enzo), sequence (chain, as listed by the source): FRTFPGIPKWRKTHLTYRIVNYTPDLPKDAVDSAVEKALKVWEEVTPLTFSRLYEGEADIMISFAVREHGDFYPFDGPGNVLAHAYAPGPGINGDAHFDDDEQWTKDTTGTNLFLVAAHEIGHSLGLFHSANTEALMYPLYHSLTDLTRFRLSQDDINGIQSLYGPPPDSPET

Question: Which reader value at 0.5 µg/ml MMP (lateral flow) [1] does the source give for MMP2 (Enzo) here?
Answer: 1610 reader units

Question: With MMP3 (Enzo) as the substance, how does the reader value at 0.5 µg/ml MMP (lateral flow) [1] read?
Answer: 336 reader units

Question: Which reader value at 0.5 µg/ml MMP (lateral flow) [1] does the source give for MMP8 (Enzo) here?
Answer: 1140 reader units

Question: For MMP9 (Enzo), which reader value at 0.5 µg/ml MMP (lateral flow) [1] is on record?
Answer: 3840 reader units

Question: How did the reader value at 0.5 µg/ml MMP (lateral flow) [1] turn out when MMP10 (Enzo) was run?
Answer: 444 reader units

Question: Which results are given for active MMP-9 (Alere San Diego)?
Answer: OD405 at 0.39 ng/ml MMP9 (ELISA, streptavidin plate, CF1522-AP) [1]: 0.14 OD405; OD405 at 0.78 ng/ml MMP9 (ELISA, streptavidin plate, CF1522-AP) [1]: 0.14 OD405; OD405 at 1.56 ng/ml MMP9 (ELISA, streptavidin plate, CF1522-AP) [1]: 0.14 OD405; OD405 at 3.13 ng/ml MMP9 (ELISA, streptavidin plate, CF1522-AP) [1]: 0.13 OD405; OD405 at 6.25 ng/ml MMP9 (ELISA, streptavidin plate, CF1522-AP) [1]: 0.17 OD405; OD405 at 12.50 ng/ml MMP9 (ELISA, streptavidin plate, CF1522-AP) [1]: 0.18 OD405; OD405 at 25.00 ng/ml MMP9 (ELISA, streptavidin plate, CF1522-AP) [1]: 0.27 OD405; OD405 at 50.00 ng/ml MMP9 (ELISA, streptavidin plate, CF1522-AP) [1]: 0.5 OD405; Ultimate ELTABA reader value at 3.90625 ng/ml MMP9 (lateral flow) [1]: 413 reader units; Ultimate ELTABA reader value at 7.8125 ng/ml MMP9 (lateral flow) [1]: 524 reader units; Ultimate ELTABA reader value at 15.625 ng/ml MMP9 (lateral flow) [1]: 882 reader units; Ultimate ELTABA reader value at 31.25 ng/ml MMP9 (lateral flow) [1]: 2030 reader units; Ultimate ELTABA reader value at 62.5 ng/ml MMP9 (lateral flow) [1]: 3830 reader units; Ultimate ELTABA reader value at 125 ng/ml MMP9 (lateral flow) [1]: 5580 reader units; Ultimate ELTABA reader value at 250 ng/ml MMP9 (lateral flow) [1]: 6220 reader units; detectable limit for MMP-9 (lateral flow, sample volume 75 µl) [1]: approximately 4 ng/ml; reader value at 0.9765625 ng/ml MMP9 (lateral flow) [1]: 338 reader units; reader value at 0.98 ng/ml MMP9 (lateral flow) [1]: 338 reader units; reader value at 1.95 ng/ml MMP9 (lateral flow) [1]: 343 reader units; reader value at 1.953125 ng/ml MMP9 (lateral flow) [1]: 343 reader units; reader value at 3.90625 ng/ml MMP9 (lateral flow) [1]: 413 reader units; reader value at 3.91 ng/ml MMP9 (lateral flow) [1]: 413 reader units; reader value at 7.81 ng/ml MMP9 (lateral flow) [1]: 524 reader units; reader value at 7.8125 ng/ml MMP9 (lateral flow) [1]: 524 reader units; reader value at 15.625 ng/ml MMP9 (lateral flow) [1]: 882 reader units; reader value at 15.63 ng/ml MMP9 (lateral flow) [1]: 882 reader units; reader value at 31.25 ng/ml MMP9 (lateral flow) [1]: 2030 reader units; reader value at 62.5 ng/ml MMP9 (lateral flow) [1]: 3830 reader units; reader value at 62.50 ng/ml MMP9 (lateral flow) [1]: 3830 reader units; reader value at 125 ng/ml MMP9 (lateral flow) [1]: 5580 reader units; reader value at 250 ng/ml MMP9 (lateral flow) [1]: 6220 reader units; reader value at 500 ng/ml MMP9 (lateral flow) [1]: 6730 reader units; reader value at 1000 ng/ml MMP9 (lateral flow) [1]: 6770 reader units; sensitivity of the MMP9 standard curves (ELISA and lateral flow) [1]: sensitivity down to 4 ng/ml; Reference assay read-out at 0 ng/ml MMP9 (blank) [2]: 3820; Reference assay read-out at 3.90625 ng/ml MMP9 [2]: 7600; Reference assay read-out at 7.8125 ng/ml MMP9 [2]: 13100; Reference assay read-out at 15.625 ng/ml MMP9 [2]: 31300; Reference assay read-out at 31.25 ng/ml MMP9 [2]: 62300; Reference assay read-out at 62.5 ng/ml MMP9 [2]: 113000; Reference assay read-out at 125 ng/ml MMP9 [2]: 163000; Reference assay read-out at 250 ng/ml MMP9 [2]: 204000
